Results taken from the supplement of paper PMC10899765.

Legend:
Settings in all cases: 20 nM; 72 h
[1] = test system: MCF10A; assay: percent viability (nuclei count relative to siNT); higher = more viable cells
Method: (§1)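 After 72 h, cells were fixed and stained with Hoechst and anti-fibrillarin, and nucleoli per nucleus were counted with CellProfiler. Values are plate-adjusted percent effect for the one-nucleolus and 5+ nucleoli phenotypes, normalised to siNT (0%) and to the positive controls siNOL11 or siKIF11 (100%), as the mean of biological triplicates. Percent viability is the nuclei count relative to siNT.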

[2] = test system: MCF10A; assay: 5+ nucleoli phenotype percent effect (relative to siNT 0% and siKIF11 100%); higher = more cells with five or more nucleoli
Method: as §1

[3] = test system: MCF10A; assay: one-nucleolus phenotype percent effect (relative to siNT 0% and siNOL11 100%); higher = more cells with one nucleolus (ribosome biogenesis inhibition)
Method: as §1

Row | Sequence | percent viability [1] [%] | 5+ nucleoli phenotype percent effect [2] [%] | one-nucleolus phenotype percent effect [3] [%]
1 | ACUGGCCUGGGACUACCGG [hsa-miR-3176] | 54.4 | 35.3 | -13.2
2 | ACUGGCUAGGGAAAAUGAUUGGAU [hsa-miR-664a-5p] | 47.9 | 8.84 | 16.3
3 | ACUGGGAAGAGGAGCUGAGGGA [hsa-miR-4646-5p] | 35 | -6.37 | 21.9
4 | ACUGGGAUGUCACUGAAUAUGGU [hsa-miR-6506-5p] | 28.3 | -3.32 | 25
5 | ACUGGGCAGGGCUGUGGUGAGU [hsa-miR-6860] | 50.7 | -5.42 | -5.92
6 | ACUGGGGGCUUUCGGGCUCUGCGU [hsa-miR-637] | 22.7 | -19.4 | 50.5
7 | ACUGGGUAGGUGGGGCUCCAGG [hsa-miR-6861-5p] | 31.9 | -15.5 | 6.88
8 | ACUGUAAACGCUUUCUGAUG [hsa-miR-3607-3p] | 124 | 42.2 | -18.5
9 | ACUGUAGUAUGGGCACUUCCAG [hsa-miR-20b-3p] | 74 | -11.6 | 1.32
10 | ACUGUCACUUCUCUGCCCAUAG [hsa-miR-6773-3p] | 47.1 | -17.8 | 13.5
11 | ACUGUUGCUAAUAUGCAACUCU [hsa-miR-367-5p] | 102 | 4.48 | -5.32
12 | ACUUAAACGUGGAUGUACUUGCU [hsa-miR-302a-5p] | 128 | 65.8 | -19
13 | ACUUACAGACAAGAGCCUUGCUC [hsa-miR-600] | 145 | 41.8 | -28.1
14 | ACUUCACCUGGUCCACUAGCCGU [hsa-miR-412] | 118 | 26 | -11.5
15 | ACUUGGGCACUGAAACAAUGUCC [hsa-miR-635] | 65.6 | 32.7 | -11.4
16 | ACUUGGGCAGGAGGGACCCUGUAUG [hsa-miR-6774-5p] | 22 | -35.9 | 31.5
17 | ACUUGUAUGCUAGCUCAGGUAG [hsa-miR-643] | 165 | 68.8 | -31.1
18 | ACUUUAACAUGGAAGUGCUUUC [hsa-miR-302b-5p] | 101 | 35.7 | -20.3
19 | ACUUUAACAUGGAGGCACUUGC [hsa-miR-302d-5p] | 92.5 | 29.1 | -13.5
20 | ACUUUCCUCACUCCCGUGAAGU [hsa-miR-3124-3p] | 115 | 49.4 | -15.5

Row | Sequence | percent viability [1] [%] | 5+ nucleoli phenotype percent effect [2] [%] | one-nucleolus phenotype percent effect [3] [%]
21 | AGAAAGGUGGAGGGGUUGUCAGA [hsa-miR-6730-5p] | 24.7 | -33.5 | 47.3
22 | AGAACUCUUGCAGUCUUAGAUGU [hsa-miR-4680-5p] | 72 | -12.8 | -11.5
23 | AGAAGAAGGCGGUCGGUCUGCGG [hsa-miR-3185] | 29.1 | -27.8 | 33.8
24 | AGAAGAUUGCAGAGUAAGUUCC [hsa-miR-4699-5p] | 48.2 | -32.9 | 31.8
25 | AGAAGGAAAUUGAAUUCAUUUA [hsa-miR-1252] | 148 | 32.3 | -13.6
26 | AGAAGGCCUUUCCAUCUCUGU [hsa-miR-4493] | 45.9 | -36.6 | 41.7
27 | AGAAGGGAAGAUGGUGAC [hsa-miR-7515] | 42.5 | 4.41 | -2.73
28 | AGAAGGGGUGAAAUUUAAACGU [hsa-miR-3179] | 18.1 | -30.9 | 60.8
29 | AGAAGUAACUACGGUUUUUGCA [hsa-miR-548ao-5p] | 74.5 | 27.5 | -16.5
30 | AGAAGUAAUUGCGGUUUUGCCA [hsa-miR-548ax] | 53.4 | -15.7 | 4.38
31 | AGAAGUGGCUAAUAAUAUUGA [hsa-miR-4795-5p] | 34.5 | -2.9 | -14.7
32 | AGAAUUGCGUUUGGACAAUCAGU [hsa-miR-2964a-3p] | 28.5 | -29.2 | 34.8
33 | AGAAUUGUGGCUGGACAUCUGU [hsa-miR-219-2-3p] | 33.5 | -41.8 | 35.6
34 | AGACACAUUUGGAGAGGGAACC [hsa-miR-642a-3p] | 90.2 | 16 | -16.3
35 | AGACACAUUUGGAGAGGGACCC [hsa-miR-642b-3p] | 71.1 | -6.68 | -3.17
36 | AGACACUAUACGAGUCAUAU [hsa-miR-3117-5p] | 120 | 12.6 | 0.975
37 | AGACAGUAGUUCUUGCCUGGUU [hsa-miR-4645-3p] | 52.7 | -25 | 18.2
38 | AGACAUCAAGAUCAGUCCCAAA [hsa-miR-3913-3p] | 21.7 | 10.4 | 34.3
39 | AGACCAUGGGUUCUCAUUGU [hsa-miR-591] | 84.8 | 10.2 | -3.76
40 | AGACCCUGCAGCCUUCCCACC [hsa-miR-4725-5p] | 36 | -16 | 17.4

Row | Sequence | percent viability [1] [%] | 5+ nucleoli phenotype percent effect [2] [%] | one-nucleolus phenotype percent effect [3] [%]
41 | AGACCCUGGUCUGCACUCUAUC [hsa-miR-504] | 64.6 | 3.4 | -10.9
42 | AGACCUGGCCCAGACCUCAGC [hsa-miR-631] | 25.9 | -2.57 | 24.7
43 | AGACUGACCUUCAACCCCACAG [hsa-miR-6855-3p] | 75.7 | -20.8 | -4.32
44 | AGACUGACGGCUGGAGGCCCAU [hsa-miR-4513] | 43.7 | 21.1 | -13.8
45 | AGACUUCCCAUUUGAAGGUGGC [hsa-miR-617] | 43.8 | -37.8 | 43.9
46 | AGAGAAGAAGAUCAGCCUGCA [hsa-miR-1253] | 84.6 | 37.9 | -16.8
47 | AGAGAUGAAGCGGGGGGGCG [hsa-miR-6088] | 91.6 | 6.48 | -6.8
48 | AGAGAUGCCGCCUUGCUCCUU [hsa-miR-4708-5p] | 45.7 | -25.3 | 21
49 | AGAGAUUGGUAGAAAUCAGGU [hsa-miR-5186] | 33.8 | -25.3 | 28.7
50 | AGAGCUCACAGCUGUCCUUCUCUA [hsa-miR-3670] | 25.7 | -9.38 | 17.6
51 | AGAGCUGAGACUAGAAAGCCCA [hsa-miR-3160-3p] | 19.1 | -5.31 | 23.1
52 | AGAGCUGGCUGAAGGGCAG [hsa-miR-4487] | 18.7 | 16.5 | 25.5
53 | AGAGCUUAGCUGAUUGGUGAAC [hsa-miR-27b-5p] | 78.6 | -22.4 | 17.8
54 | AGAGGACCCGUAGCUGCUAGAAGG [hsa-miR-4751] | 106 | 41.7 | -23.3
55 | AGAGGAUACCCUUUGUAUGUU [hsa-miR-1185-5p] | 34.2 | 5.5 | 2.36
56 | AGAGGCUGAGAAGGUGAUGUUG [hsa-miR-6884-5p] | 22.3 | -24.7 | 41.6
57 | AGAGGCUGGCCGUGAUGAAUUC [hsa-miR-485-5p] | 216 | 22.1 | -17.3
58 | AGAGGCUUUGUGCGGAUACGGGG [hsa-miR-3188] | 29.7 | -26 | 33.1
59 | AGAGGUAGGUGUGGAAGAA [hsa-miR-4458] | 42.7 | 36.9 | -20.7
